One molecule from paper PMC3089553 (The Journal of Biological Chemistry, 2011) can be followed below.

For this assay, the target named is T1, His-CTNNBL1(Δ1–76) (UniProt Q8WYA6 77-563).
T1 sequence (looked up): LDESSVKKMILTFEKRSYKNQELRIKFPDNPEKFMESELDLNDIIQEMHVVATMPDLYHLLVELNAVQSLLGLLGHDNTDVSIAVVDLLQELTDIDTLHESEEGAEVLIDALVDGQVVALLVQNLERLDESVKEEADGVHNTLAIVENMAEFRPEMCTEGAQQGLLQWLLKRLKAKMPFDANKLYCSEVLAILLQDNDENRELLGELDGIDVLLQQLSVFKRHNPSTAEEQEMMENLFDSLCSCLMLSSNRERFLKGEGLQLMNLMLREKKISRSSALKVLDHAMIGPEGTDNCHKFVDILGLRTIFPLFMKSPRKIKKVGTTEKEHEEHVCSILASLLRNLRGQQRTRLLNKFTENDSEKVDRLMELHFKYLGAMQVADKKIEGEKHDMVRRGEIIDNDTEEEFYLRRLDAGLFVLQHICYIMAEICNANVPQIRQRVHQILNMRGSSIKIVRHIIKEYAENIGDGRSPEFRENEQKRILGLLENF
The assay can be described thus: ITC. (In general: Isothermal titration calorimetry measures the heat released or taken up as one component is titrated into another.)

As to KKRKRKR [CDC5L NLS3 peptide], the “dH1 (site 1)” value was -1.48 ± 0.11 kcal/mol and the “dH2 (site 2)” value was -3.28 ± 0.15 kcal/mol.
